Reference: patent US9958461B2, “Detection of protein to protein interactions” (THE GOVERNING COUNCIL OF THE UNIVERSITY OF TORONTO, priority 2013, dated 2018)

What was measured:
EGFR-L858R = target: T1, EGFR-L858R (Homo sapiens, UniProt P00533, L858R); assay: MaMTH EGFR-interactor screen, lentiviral preys against EGFR-L858R bait (interaction score); format: cell-based; conditions: MaMTH interaction score of prey with EGFR-L858R bait
T1 construct: with the advantage of testing full-length integral membrane proteins; (GGGGS)2 linker-Cub (human ubiquitin aa 35-76)-GAL4(1-147)-mNFkB(364-550) (C); expressed in transfected cells
Outline: (§1)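 5×GAL4UAS-luciferase HEK293T reporter cells were lentivirally infected with preys (MOI ~0.3-0.4) and puromycin-selected ≥48 h. They were then transfected in triplicate with the EGFR bait, and luciferase was read 24 h later. Score is fold-change over averaged negative-control preys; >1 denotes interaction.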

EGFR-Wt [1] = target: T2, EGFR-Wt (Homo sapiens, UniProt P00533); assay: MaMTH EGFR-interactor screen, lentiviral preys against EGFR-wildtype bait (interaction score); format: cell-based; conditions: MaMTH interaction score of prey with EGFR-Wt bait, mean
T2 construct: with the advantage of testing full-length integral membrane proteins; (GGGGS)2 linker-Cub (human ubiquitin aa 35-76)-GAL4(1-147)-mNFkB(364-550) (C); expressed in transfected cells
Outline: as §1

EGFR-Wt [2] = assay: as above; format: cell-based, human; conditions: ratio of EGFR-Wt mean to EGFR-L858R mean interaction score
Outline: as §1

B1: WASL (protein, UniProt O00401 2-505, looked up)
Actin nucleation-promoting …: SSVQQQPPPPRRVTNVGSLLLTPQENESLFTFLGKKCVTMSSAVVQLYAADRNCMWSKKCSGVACLVKDNPQRSYFLRIFDIKDGKLLWEQELYNNFVYNSPRGYFHTFAGDTCQVALNFANEEEAKKFRKAVTDLLGRRQRKSEKRRDPPNGPNLPMATVDIKNPEITTNRFYGPQVNNISHTKEKKKGKAKKKRLTKADIGTPSNFQHIGHVGWDPNTGFDLNNLDPELKNLFDMCGISEAQLKDRETSKVIYDFIEKTGGVEAVKNELRRQAPPPPPPSRGGPPPPPPPPHNSGPPPPPARGRGAPPPPPSRAPTAAPPPPPPSRPSVAVPPPPPNRMYPPPPPALPSSAPSGPPPPPPSVLGVGPVAPPPPPPPPPPPGPPPPPGLPSDGDHQVPTTAGNKAALLDQIREGAQLKKVEQNSRPVSCSGRDALLDQIRQGIQLKSVADGQESTPPTPAPTSGIVGALMEVMQKRSKAIHSSDEDEDEDDEEDFEDDDEWED
EGFR-L858R
  EGFR-L858R mean: 1.93
EGFR-Wt [1]
  EGFR-Wt mean: 1.41
EGFR-Wt [2]
  Wt/L858R: 0.73

B2: BCAR3 (protein, UniProt O75815 2-825, looked up)
Breast cancer anti-estrogen …: AAGKFASLPRNMPVNHQFPLASSMDLLSSRSPLAEHRPDAYQDVSIHGTLPRKKKGPPPIRSCDDFSHMGTLPHSKSPRQNSPVTQDGIQESPWQDRHGETFTFRDPHLLDPTVEYVKFSKERHIMDRTPEKLKKELEEELLLSSEDLRSHAWYHGRIPRQVSENLVQRDGDFLVRDSLSSPGNFVLTCQWKNLAQHFKINRTVLRLSEAYSRVQYQFEMESFDSIPGLVRCYVGNRRPISQQSGAIIFQPINRTVPLRCLEEHYGTSPGQAREGSLTKGRPDVAKRLSLTMGGVQAREQNLPRGNLLRNKEKSGSQPACLDHMQDRRALSLKAHQSESYLPIGCKLPPQSSGVDTSPCPNSPVFRTGSEPALSPAVVRRVSSDARAGEALRGSDSQLCPKPPPKPCKVPFLKVPSSPSAWLNSEANYCELNPAFATGCGRGAKLPSCAQGSHTELLTAKQNEAPGPRNSGVNYLILDDDDRERPWEPAAAQMEKGQWDKGEFVTPLLETVSSFRPNEFESKFLPPENKPLETAMLKRAKELFTNNDPKVIAQHVLSMDCRVARILGVSEEMRRNMGVSSGLELITLPHGHQLRLDIIERHNTMAIGIAVDILGCTGTLEDRAATLSKIIQVAVELKDSMGDLYSFSALMKALEMPQITRLEKTWTALRHQYTQTAILYEKQLKPFSKLLHEGRESTCVPPNNVSVPLLMPLVTLMERQAVTFEGTDMWEKNDQSCEIMLNHLATARFMAEAADSYRMNAERILAGFQPDEEMNEICKTEFQMRLLWGSKGAQVNQTERYEKFNQILTALSRKLEPPPVKQAEL
EGFR-L858R
  EGFR-L858R mean: 1.06
EGFR-Wt [1]
  EGFR-Wt mean: 0.79
EGFR-Wt [2]
  Wt/L858R: 0.75

B3: MED28 (protein, UniProt Q9H204 1-178, looked up)
Mediator of RNA polymerase II …: MAAPLGGMFSGQPPGPPQAPPGLPGQASLLQAAPGAPRPSSSTLVDELESSFEACFASLVSQDYVNGTDQEEIRTGVDQCIQKFLDIARQTECFFLQKRLQLSVQKPEQVIKEDVSELRNELQRKDALVQKHLTKLRHWQQVLEDINVQHKKPADIPQGSLAYLEQASANIPAPLKPT
EGFR-L858R
  EGFR-L858R mean: 1.14
EGFR-Wt [1]
  EGFR-Wt mean: 0.87
EGFR-Wt [2]
  Wt/L858R: 0.76

B4: TXN (protein, UniProt P10599 2-105, looked up)
Thioredoxin: VKQIESKTAFQEALDAAGDKLVVVDFSATWCGPCKMIKPFFHSLSEKYSNVIFLEVDVDDCQDVASECEVKCMPTFQFFKKGQKVGEFSGANKEKLEATINELV
EGFR-L858R
  EGFR-L858R mean: 7.03
EGFR-Wt [1]
  EGFR-Wt mean: 5.10
EGFR-Wt [2]
  Wt/L858R: 0.73

B5: PTPN18 (protein, UniProt Q99952 1-460, looked up)
Tyrosine-protein phosphatase …: MSRSLDSARSFLERLEARGGREGAVLAGEFSDIQACSAAWKADGVCSTVAGSRPENVRKNRYKDVLPYDQTRVILSLLQEEGHSDYINGNFIRGVDGSLAYIATQGPLPHTLLDFWRLVWEFGVKVILMACREIENGRKRCERYWAQEQEPLQTGLFCITLIKEKWLNEDIMLRTLKVTFQKESRSVYQLQYMSWPDRGVPSSPDHMLAMVEEARRLQGSGPEPLCVHCSAGCGRTGVLCTVDYVRQLLLTQMIPPDFSLFDVVLKMRKQRPAAVQTEEQYRFLYHTVAQMFCSTLQNASPHYQNIKENCAPLYDDALFLRTPQALLAIPRPPGGVLRSISVPGSPGHAMADTYAVVQKRGAPAGAGSGTQTGTGTGTGARSAEEAPLYSKVTPRAQRPGAHAEDARGTLPGRVPADQSPAGSGAYEDVAGGAQTGGLGFNLRIGRPKGPRDPPAEWTRV
EGFR-L858R
  EGFR-L858R mean: 2.18
EGFR-Wt [1]
  EGFR-Wt mean: 1.54
EGFR-Wt [2]
  Wt/L858R: 0.71

B6: SLA2 (protein, UniProt Q9H6Q3 2-261, looked up)
Src-like-adapter 2: GSLPSRRKSLPSPSLSSSVQGQGPVTMEAERSKATAVALGSFPAGGPAELSLRLGEPLTIVSEDGDWWTVLSEVSGREYNIPSVHVAKVSHGWLYEGLSREKAEELLLLPGNPGGAFLIRESQTRRGSYSLSVRLSRPASWDRIRHYRIHCLDNGWLYISPRLTFPSLQALVDHYSELADDICCLLKEPCVLQRAGPLPGKDIPLPVTVQRTPLNWKELDSSLLFSEAATGEESLLSEGLRESLSFYISLNDEAVSLDDA
EGFR-L858R
  EGFR-L858R mean: 3.11
EGFR-Wt [1]
  EGFR-Wt mean: 2.22
EGFR-Wt [2]
  Wt/L858R: 0.71

B7: CRKL (protein, UniProt P46109 1-303, looked up)
Crk-like protein: MSSARFDSSDRSAWYMGPVSRQEAQTRLQGQRHGMFLVRDSSTCPGDYVLSVSENSRVSHYIINSLPNRRFKIGDQEFDHLPALLEFYKIHYLDTTTLIEPAPRYPSPPMGSVSAPNLPTAEDNLEYVRTLYDFPGNDAEDLPFKKGEILVIIEKPEEQWWSARNKDGRVGMIPVPYVEKLVRSSPHGKHGNRNSNSYGIPEPAHAYAQPQTTTPLPAVSGSPGAAITPLPSTQNGPVFAKAIQKRVPCAYDKTALALEVGDIVKVTRMNINGQWEGEVNGRKGLFPFTHVKIFDPQNPDENE
EGFR-L858R
  EGFR-L858R mean: 13.65
EGFR-Wt [1]
  EGFR-Wt mean: 10.25
EGFR-Wt [2]
  Wt/L858R: 0.75

B8: STAT1 (protein, UniProt P42224 2-750, looked up)
Signal transducer and …: SQWYELQQLDSKFLEQVHQLYDDSFPMEIRQYLAQWLEKQDWEHAANDVSFATIRFHDLLSQLDDQYSRFSLENNFLLQHNIRKSKRNLQDNFQEDPIQMSMIIYSCLKEERKILENAQRFNQAQSGNIQSTVMLDKQKELDSKVRNVKDKVMCIEHEIKSLEDLQDEYDFKCKTLQNREHETNGVAKSDQKQEQLLLKKMYLMLDNKRKEVVHKIIELLNVTELTQNALINDELVEWKRRQQSACIGGPPNACLDQLQNWFTIVAESLQQVRQQLKKLEELEQKYTYEHDPITKNKQVLWDRTFSLFQQLIQSSFVVERQPCMPTHPQRPLVLKTGVQFTVKLRLLVKLQELNYNLKVKVLFDKDVNERNTVKGFRKFNILGTHTKVMNMEESTNGSLAAEFRHLQLKEQKNAGTRTNEGPLIVTEELHSLSFETQLCQPGLVIDLETTSLPVVVISNVSQLPSGWASILWYNMLVAEPRNLSFFLTPPCARWAQLSEVLSWQFSSVTKRGLNVDQLNMLGEKLLGPNASPDGLIPWTRFCKENINDKNFPFWLWIESILELIKKHLLPLWNDGCIMGFISKERERALLKDQQPGTFLLRFSESSREGAITFTWVERSQNGGEPDFHAVEPYTKKELSAVTFPDIIRNYKVMAAENIPENPLKYLYPNIDKDHAFGKYYSRPKEAPEPMELDGPKGTGYIKTELISVSEVHPSRLQTTDNLLPMSPEEFDEVSRIVGSVEFDSMMNTV
EGFR-L858R
  EGFR-L858R mean: 6.80
EGFR-Wt [1]
  EGFR-Wt mean: 4.70
EGFR-Wt [2]
  Wt/L858R: 0.69

B9: LYN (protein, UniProt P07948 2-512, looked up)
Tyrosine-protein kinase Lyn: GCIKSKGKDSLSDDGVDLKTQPVRNTERTIYVRDPTSNKQQRPVPESQLLPGQRFQTKDPEEQGDIVVALYPYDGIHPDDLSFKKGEKMKVLEEHGEWWKAKSLLTKKEGFIPSNYVAKLNTLETEEWFFKDITRKDAERQLLAPGNSAGAFLIRESETLKGSFSLSVRDFDPVHGDVIKHYKIRSLDNGGYYISPRITFPCISDMIKHYQKQADGLCRRLEKACISPKPQKPWDKDAWEIPRESIKLVKRLGAGQFGEVWMGYYNNSTKVAVKTLKPGTMSVQAFLEEANLMKTLQHDKLVRLYAVVTREEPIYIITEYMAKGSLLDFLKSDEGGKVLLPKLIDFSAQIAEGMAYIERKNYIHRDLRAANVLVSESLMCKIADFGLARVIEDNEYTAREGAKFPIKWTAPEAINFGCFTIKSDVWSFGILLYEIVTYGKIPYPGRTNADVMTALSQGYRMPRVENCPDELYDIMKMCWKEKAEERPTFDYLQSVLDDFYTATEGQYQQQP
EGFR-L858R
  EGFR-L858R mean: 9.74
EGFR-Wt [1]
  EGFR-Wt mean: 6.92
EGFR-Wt [2]
  Wt/L858R: 0.71

B10: PTK2 (protein, UniProt Q05397 2-1052, looked up)
Focal adhesion kinase 1: AAAYLDPNLNHTPNSSTKTHLGTGMERSPGAMERVLKVFHYFESNSEPTTWASIIRHGDATDVRGIIQKIVDSHKVKHVACYGFRLSHLRSEEVHWLHVDMGVSSVREKYELAHPPEEWKYELRIRYLPKGFLNQFTEDKPTLNFFYQQVKSDYMLEIADQVDQEIALKLGCLEIRRSYWEMRGNALEKKSNYEVLEKDVGLKRFFPKSLLDSVKAKTLRKLIQQTFRQFANLNREESILKFFEILSPVYRFDKECFKCALGSSWIISVELAIGPEEGISYLTDKGCNPTHLADFTQVQTIQYSNSEDKDRKGMLQLKIAGAPEPLTVTAPSLTIAENMADLIDGYCRLVNGTSQSFIIRPQKEGERALPSIPKLANSEKQGMRTHAVSVSETDDYAEIIDEEDTYTMPSTRDYEIQRERIELGRCIGEGQFGDVHQGIYMSPENPALAVAIKTCKNCTSDSVREKFLQEALTMRQFDHPHIVKLIGVITENPVWIIMELCTLGELRSFLQVRKYSLDLASLILYAYQLSTALAYLESKRFVHRDIAARNVLVSSNDCVKLGDFGLSRYMEDSTYYKASKGKLPIKWMAPESINFRRFTSASDVWMFGVCMWEILMHGVKPFQGVKNNDVIGRIENGERLPMPPNCPPTLYSLMTKCWAYDPSRRPRFTELKAQLSTILEEEKAQQEERMRMESRRQATVSWDSGGSDEAPPKPSRPGYPSPRSSEGFYPSPQHMVQTNHYQVSGYPGSHGITAMAGSIYPGQASLLDQTDSWNHRPQEIAMWQPNVEDSTVLDLRGIGQVLPTHLMEERLIRQQQEMEEDQRWLEKEERFLKPDVRLSRGSIDREDGSLQGPIGNQHIYQPVGKPDPAAPPKKPPRPGAPGHLGSLASLSSPADSYNEGVKLQPQEISPPPTANLDRSNDKVYENVTGLVKAVIEMSSKIQPAPPEEYVPMVKEVGLALRTLLATVDETIPLLPASTHREIEMAQKLLNSDLGELINKMKLAQQYVMTSLQQEYKKQMLTAAHALAVDAKNLLDVIDQARLKMLGQTRPH
EGFR-L858R
  EGFR-L858R mean: 5.59
EGFR-Wt [1]
  EGFR-Wt mean: 4.05
EGFR-Wt [2]
  Wt/L858R: 0.72
